What is called stoichiometry N is a count of units in the complex or per binding partner.

Series [1] has as its target bat star (Patiria miniata) DGCR8 heme-binding domain, HBD-His6 (Patiria miniata (bat star)). Nature of the series: SEC; size exclusion chromatography, last step of the purification; SEC buffer 400 mM NaCl, 20 mM Tris pH 8.0, 1 mM DTT; elution volumes compared (bat star HBD 13.8 mL; human HBD dimer; human NC9 monomer 2.6 mL later). On the technique in general: In gel filtration, larger molecules generally elute earlier.

Series [2] concerns the molecule itself. The description is as above.

Molecule “bat star (Patiria miniata) DGCR8 heme-binding domain, HBD-His6 (domain or fragment)” yielded a stoichiometry N in series [1] of 2.

B1: human DGCR8 heme-binding domain, HBD-His6 (domain or fragment, UniProt Q8WYQ5 276-498, looked up)
chain: DGETSVQPMMTKIKTVLKSRGRPPTEPLPDGWIMTFHNSGVPVYLHRESRVVTWSRPYFLGTGSIRKHDPPLSSIPCLHYKKMKDNEEREQSSDLTPSGDVSPVKPLSRSAELEFPLDEPDSMGADPGPPDEKDPLGAEAAPGALGQVKAKVEVCKDESVDLEEFRSYLEKRFDFEQVTVKKFRTWAERRQFNREMKRKQAESERPILPANQKLITLSVQDAP
notes: Dimer of 54 kDa; also called human HBD; human HBD-His6; not shown: His6, C-terminal, kept
Take B1: the “stoichiometry N” value in series [2] came out at 2.

The values above are taken from paper PMC3388087 (PLoS ONE, 2012).
